From patent publication US11697680B2, “Anti-GP73 antibodies and immunoconjugates” (CUREAB GMBH, priority 2016, dated 2023)
Entries after “also recorded” stand apart in the source; their conditions may differ.

How the values were obtained:
[1] = test system: HEK293 GP73-His full length cells; assay: Furin blockage experiment: sGP73 in cell culture supernatant (Up-converting Phosphor Technology); type: cell-based, human; conditions: 31.3 ug/ml or 62.5 ug/ml; after 96 hours
Procedure: FIG. 23 Measurement of sGP73 in cell culture supernatant after treatment of 293HEK GP73-His full length cells with Bevacizumab or G2-2opti (IgG1). Furin cleavage is a prerequisite for sGP73 to appear in the supernatant.
HEK293 GP73-His full length cells were seeded in 96 well plates 1500 cells per well and cultured overnight. Next day, medium was changed and cells were treated with Bevacizumab 31.3 ug/ml, Bevacizumab 62.5 ug/ml, G2-2opti(IgG1) 31.3 ug/ml or G2-2opti (IgG1) 62.5 ug/ml. To examine furin cleavage inhibition the respective antibody concentrations were chosen in a range that had no impact on cell proliferation. After 96 hours the supernatants were collected for measurement of sGP73 exploiting the Up-converting Phosphor Technology (UCP) and the remaining cell layer was used in a proliferation assay with PrestoBlue reagent (Thermofisher) described in Example 8.
For sGP73 detection each supernatant was diluted 1:1 in Hotgen dilution buffer containing an anti GP73 UCP labelled antibody. […] GP73 concentrations were deduced from differences of light emission at the C and T line measured by inserting the test cassette into the Hotgen Up-converting Phosphor Technology (UCP) Analyser.

HuH7 cells = assay: Internalization of pHrodo Green labeled antibodies after pre-incubation with conditioned media containing soluble GP73; type: cell-based, human; conditions: 10 ug/ml pHrodo Green labeled antibody pre-incubated over night, 24 h at 37° C.
Procedure: Antibody internalization was measured by FACS using the pH-sensitive dye pHrodo Green coupled to each antibody. […] The internalization of G2-2 that binds to rGP73 is not altered as described in Example 6.
Labeled antibodies were purified by size exclusion (40K MWCO). A non binding Isotype Antibody that was not labeled with pHrodo® Green STP Ester (Iso.) was used as control for background fluorescence. 10 ug/ml of each antibody was pre-incubated over night at 4° C. with either fresh culture media or conditioned media. As conditioned media served either supernatant from HEK 293 or HEK 293 GP73-myc cells cultured for 72 hours, that was dialyzed (10 k MWCO) against 1 L fresh media each. To confirm the presence of secreted soluble GP73 after dialysis supernatants were analysed by Western Blot using an anti-myc antibody. 300 ul/well of each pre-incubated antibody was given to 0.6×10^6HuH7 cells growing in 24 well plates for 24 h at 37° C. and 5% CO2. Cells were washed and analysed by FACS.

[2] = test system: HuH7 (human hepatocellular carcinoma); assay: Cell viability / proliferation with PrestoBlue reagent; type: cell-based; conditions: 0.125 mg/ml to 2 mg/ml, after 72 hrs
Procedure: FIG. 13A Proliferation of HuH7 cells (human hepatocellular carcinoma) after treatment with different antibodies. HuH7 cells were treated with G2-2, G2-2 plus Cetuximab, mG2-2, mG2-2 plus Cetuximab, Cetuximab or control antibody each in increasing concentrations from 0.125 mg/ml to 2 mg/ml. Proliferating cells were measured after 72 hrs. […] This effect was independent of the Fc part i.e. human IgG1 in G2-2 or murin IgG2a in mG2-2 as described in Example 8.
FIG. 13B Proliferation of HuH7 cells (human hepatocellular carcinoma), 4T1 cells (murin breast carcinoma) and CaCo2 cells (human colorectal carcinoma) after treatment with different antibodies. The three cell lines were treated with G2-1, G2-1 plus Cetuximab, Cetuximab, Bevacizumab or Bevacizumab plus Cetuximab 2 mg/ml total. Proliferating cells were measured after 72 hrs.
Cells from the cell lines HuH7 (human hepatocellular carcinoma), 4T1 (murin breast carcinoma) and CaCo2 (human colorectal carcinoma) were cultured under standard conditions in Dulbecco's modified Eagle Medium (DMEM) supplemented with 10% fetal calf serum (FCS) at 37° C. with 5% CO2. […] Fluorescence was read at 615 nm to quantify cell viability. […]
To test the effect of G2-1 on different cell lines, HuH7, 4T1 and CaCo2 cells were transferred to 96 well plates. […] Cell viability was quantified after 72 hours using PrestoBlue reagent and measuring the fluorescence at 615 nm.

## Bevacizumab: the isotype control [reference compound]
[1]
  sGP73 in cell culture supernatant: no influence on sGP73 levels

B1: G2-2opti (IgG1): G2-2 optimized for expression in mammalian cells by directed mutagenesis of framework; CDRs untouched (antibody, V domains shown)
VH: QVQLVQSGGGVVQPGRSLRLSCAASGFTFSSYGMHWVRQAPGKGLEWVAVISYDGSNKYYADSVKGRFTISRDNSKNTLYLQMNSLRAEDTAVYYCAREGSAGMDVWGQGTTVTVSS
VL: QAVLTQPSSLSASPGASASLTCTLRSDISVGFHRIYWYQQKPGSPPQYLLRYKSDSDKQQGSGVPSRFSGSKDASANAGILLISGLQSDDEADYYCVIWHTSGVVFGGGTKLTVL
[1]
  sGP73 in cell culture supernatant: decreases sGP73 secretion into supernatant; also recorded: reduce GP73 concentration

B2: G2-4: hybridoma antibody against peptide AA 347-366 of human GP73 (sGP73); VH/VL SEQ ID NOs: 18 and 19 (antibody, V domains shown)
VH: QVQLEESGGGLVQPGGSLRLSCATSGFTFTDYYMSWVRQPPGKALEWLGFIRNKAKGYTTEYSASVKGRFTISRDNSQSILYLQMNTLRAEDSATYYCARDPSTNYWYFDVWGAGTTVTVSS
VL: DIVLTQSPSSLAVSAGEKVTMTCKSSQSLLNSRTRKNYLAWYQQKPGQSPKLLIYWASTRESGVPDRFTGSGSGTDFTLTISSVQAEDLAVYYCKQSYNLYTFGGGTKLEIKR
modifications: G2-4 heavy chain variable region (VH); G2-4 light chain variable region (VL)
HuH7 cells
  effect of conditioned media containing soluble GP73 on antibody internalization / cell surface binding: reduces antibody binding; also recorded: reduces internalization

B3: mG2-2: G2-2 variable regions with murine IgG2a heavy chain and human Igk light chain constant regions (antibody)
heavy: EVQLLQSGGGVVQPGRSLRLSCAASGFTFSSYGMSWVRQAPGKGLEWVAVISYDGSNKYYADSVKGRFTISRDNSKNTLYLQMNSLRAEDTAVYYCAREGSAGMDVWGQGTTVTVSSASTTAPSVYPLAPVCGDTTGSSVTLGCLVKGYFPEPVTLTWNSGSLSSGVHTFPAVLQSDLYTLSSSVTVTSSTWPSQSITCNVAHPASSTKVDKKIEPRGPTIKPCPPCKCPAPNLLGGPSVFIFPPKIKDVLMISLSPIVTCVVVDVSEDDPDVQISWFVNNVEVHTAQTQTHREDYNSTLRVVSALPIQHQDWMSGKEFKCKVNNKDLPAPIERTISKPKGSVRAPQVYVLPPPEEEMTKKQVTLTCMVTDFMPEDIYVEWTNNGKTELNYKNTEPVLDSDGSYFMYSKLRVEKKNWVERNSYSCSVVHEGLHNHHTTKSFSRTPGK
light: DIQMTQPSSLSASPGASASLTCTLRSDISVGFHRIYWYQQKPGSPPQYLLRYKSDSDKQQGSGVPSRFSGSKDASANAGILLISGLQSDDEADYYCVIWHTSGVVFGGGTKVEIKRTVAAPSVFIFPPSDEQLKSGTASVVCLLNNFYPREAKVQWKVDNALQSGNSQESVTEQDSKDSTYSLSSTLTLSKADYEKHKVYACEVTHQGLSSPVTKSFNRGEC
[2]
  cell proliferation / cell viability: reduced depending on antibody concentration
